Measured values as given in patent US10941182 (Amgen, dated 2021).
Starred links: 1 amine or outer side, 2 acyl side, 3 side chain; linkers in the order of their positions; H or OH if unused. Non-standard residues stand in square brackets, D forms with d. *: point of attachment. dBip = N[C@H](Cc1ccc(-c2ccccc2)cc1)C(=O)O; Oic = O=C(O)[C@@H]1C[C@@H]2CCCC[C@@H]2N1; Phe(4-Cl) = N[C@@H](Cc1ccc(Cl)cc1)C(=O)O; Phe(4-I) = N[C@@H](Cc1ccc(I)cc1)C(=O)O; γGlu = O=C(O)[C@H](CCC(=O)[*:2])N[*:1]; Tridecanoyl = CCCCCCCCCCCCC(=O)*; hArg = N=C(N)NCCCC[C@H](N)C(=O)O; Cha = N[C@@H](CC1CCCCC1)C(=O)O; NMeL = CN[C@@H](CC(C)C)C(=O)O; Nle = CCCC[C@H](N)C(=O)O; AEEA = NCCOCCOCC(=O)O

T1: human APJ receptor (human, UniProt P35414 1-380)
T1 sequence (looked up): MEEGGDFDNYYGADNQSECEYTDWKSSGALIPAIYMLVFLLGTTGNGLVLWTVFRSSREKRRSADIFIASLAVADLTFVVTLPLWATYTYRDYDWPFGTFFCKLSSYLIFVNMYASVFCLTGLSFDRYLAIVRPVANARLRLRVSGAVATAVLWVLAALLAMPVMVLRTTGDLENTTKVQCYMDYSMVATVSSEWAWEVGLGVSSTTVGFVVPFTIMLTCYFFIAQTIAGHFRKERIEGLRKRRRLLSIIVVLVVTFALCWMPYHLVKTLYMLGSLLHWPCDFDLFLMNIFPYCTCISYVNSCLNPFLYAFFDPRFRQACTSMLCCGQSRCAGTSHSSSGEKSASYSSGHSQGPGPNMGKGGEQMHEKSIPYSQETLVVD

T2: rat APJ receptor (rat, UniProt Q9JHG3 1-377)
T2 sequence (looked up): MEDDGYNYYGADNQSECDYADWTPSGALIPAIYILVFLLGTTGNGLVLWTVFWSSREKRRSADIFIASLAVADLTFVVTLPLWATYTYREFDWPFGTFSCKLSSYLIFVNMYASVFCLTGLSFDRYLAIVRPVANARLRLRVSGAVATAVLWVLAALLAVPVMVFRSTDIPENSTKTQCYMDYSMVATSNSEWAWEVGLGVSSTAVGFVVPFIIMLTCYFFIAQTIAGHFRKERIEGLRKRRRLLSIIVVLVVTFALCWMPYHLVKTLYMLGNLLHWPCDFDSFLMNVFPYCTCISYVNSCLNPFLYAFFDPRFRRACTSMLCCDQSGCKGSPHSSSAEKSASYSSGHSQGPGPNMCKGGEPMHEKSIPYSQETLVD


Experiments:
[1] = molecular target: T1, human APJ receptor; assay: cell-based or functional assay
[2] = molecular target: T2, rat APJ receptor; assay: cell-based or functional assay

Binder	EC50 Human APJ Receptor (GTPγS assay) [1] [nM]	EC50 Rat APJ Receptor (GTPγS assay) [2] [nM]
Tridecanoyl-[γGlu][AEEA][AEEA][Nle][dR]Q[hArg]P[dR][NMeL]SHKG[Oic][Phe(4-I)]P[dBip]-OH (SMILES CCCCCCCCCCCCC(=O)N[C@@H](CCC(=O)NCCOCCOCC(=O)NCCOCCOCC(=O)N[C@@H](CCCC)C(=O)N[C@H](CCCNC(=N)N)C(=O)N[C@@H](CCC(N)=O)C(=O)N[C@@H](CCCCNC(=N)N)C(=O)N1CCC[C@H]1C(=O)N[C@H](CCCNC(=N)N)C(=O)N(C)[C@@H](CC(C)C)C(=O)N[C@@H](CO)C(=O)N[C@@H](Cc1c[nH]cn1)C(=O)N[C@@H](CCCCN)C(=O)NCC(=O)N1[C@H](C(=O)N[C@@H](Cc2ccc(I)cc2)C(=O)N2CCC[C@H]2C(=O)N[C@H](Cc2ccc(-c3ccccc3)cc2)C(=O)O)C[C@@H]2CCCC[C@@H]21)C(=O)O) [Apelin polypeptide SEQ ID NO: 314]	2.77	6.81
Tridecanoyl-[γGlu][AEEA][AEEA][Nle]QRP[hArg][Cha]AAKG[Oic][Nle]P[Phe(4-Cl)]-OH (SMILES CCCCCCCCCCCCC(=O)N[C@@H](CCC(=O)NCCOCCOCC(=O)NCCOCCOCC(=O)N[C@@H](CCCC)C(=O)N[C@@H](CCC(N)=O)C(=O)N[C@@H](CCCNC(=N)N)C(=O)N1CCC[C@H]1C(=O)N[C@@H](CCCCNC(=N)N)C(=O)N[C@@H](CC1CCCCC1)C(=O)N[C@@H](C)C(=O)N[C@@H](C)C(=O)N[C@@H](CCCCN)C(=O)NCC(=O)N1[C@H](C(=O)N[C@@H](CCCC)C(=O)N2CCC[C@H]2C(=O)N[C@@H](Cc2ccc(Cl)cc2)C(=O)O)C[C@@H]2CCCC[C@@H]21)C(=O)O) [Apelin polypeptide SEQ ID NO: 347]	1.89	2.13
Tridecanoyl-[γGlu][AEEA][AEEA][Nle][dR]Q[hArg]P[dR][NMeL]SAKG[Oic][Phe(4-I)]P[dBip]-OH (SMILES CCCCCCCCCCCCC(=O)N[C@@H](CCC(=O)NCCOCCOCC(=O)NCCOCCOCC(=O)N[C@@H](CCCC)C(=O)N[C@H](CCCNC(=N)N)C(=O)N[C@@H](CCC(N)=O)C(=O)N[C@@H](CCCCNC(=N)N)C(=O)N1CCC[C@H]1C(=O)N[C@H](CCCNC(=N)N)C(=O)N(C)[C@@H](CC(C)C)C(=O)N[C@@H](CO)C(=O)N[C@@H](C)C(=O)N[C@@H](CCCCN)C(=O)NCC(=O)N1[C@H](C(=O)N[C@@H](Cc2ccc(I)cc2)C(=O)N2CCC[C@H]2C(=O)N[C@H](Cc2ccc(-c3ccccc3)cc2)C(=O)O)C[C@@H]2CCCC[C@@H]21)C(=O)O) [Apelin polypeptide SEQ ID NO: 326]	14.8	17.8
Tridecanoyl-[γGlu][AEEA][AEEA][Nle]QRP[hArg][Cha]SHKG[Oic][Nle]P[Phe(4-Cl)]-OH (SMILES CCCCCCCCCCCCC(=O)N[C@@H](CCC(=O)NCCOCCOCC(=O)NCCOCCOCC(=O)N[C@@H](CCCC)C(=O)N[C@@H](CCC(N)=O)C(=O)N[C@@H](CCCNC(=N)N)C(=O)N1CCC[C@H]1C(=O)N[C@@H](CCCCNC(=N)N)C(=O)N[C@@H](CC1CCCCC1)C(=O)N[C@@H](CO)C(=O)N[C@@H](Cc1c[nH]cn1)C(=O)N[C@@H](CCCCN)C(=O)NCC(=O)N1[C@H](C(=O)N[C@@H](CCCC)C(=O)N2CCC[C@H]2C(=O)N[C@@H](Cc2ccc(Cl)cc2)C(=O)O)C[C@@H]2CCCC[C@@H]21)C(=O)O) [Apelin polypeptide SEQ ID NO: 338]	0.56	0.766

Other lines, results leading:

EC50 Human APJ Receptor (GTPγS assay) [1] [nM]	EC50 Rat APJ Receptor (GTPγS assay) [2] [nM]	Binder
17.9	37.7	Tridecanoyl-[γGlu][AEEA][AEEA][Nle][dR]Q[hArg]P[dR][NMeL]AHKG[Oic][Phe(4-I)]P[dBip]-OH (SMILES CCCCCCCCCCCCC(=O)N[C@@H](CCC(=O)NCCOCCOCC(=O)NCCOCCOCC(=O)N[C@@H](CCCC)C(=O)N[C@H](CCCNC(=N)N)C(=O)N[C@@H](CCC(N)=O)C(=O)N[C@@H](CCCCNC(=N)N)C(=O)N1CCC[C@H]1C(=O)N[C@H](CCCNC(=N)N)C(=O)N(C)[C@@H](CC(C)C)C(=O)N[C@@H](C)C(=O)N[C@@H](Cc1c[nH]cn1)C(=O)N[C@@H](CCCCN)C(=O)NCC(=O)N1[C@H](C(=O)N[C@@H](Cc2ccc(I)cc2)C(=O)N2CCC[C@H]2C(=O)N[C@H](Cc2ccc(-c3ccccc3)cc2)C(=O)O)C[C@@H]2CCCC[C@@H]21)C(=O)O) [Apelin polypeptide SEQ ID NO: 320]
40	50.5	Tridecanoyl-[γGlu][AEEA][AEEA][Nle][dR]Q[hArg]P[dR][NMeL]AAKG[Oic][Phe(4-I)]P[dBip]-OH (SMILES CCCCCCCCCCCCC(=O)N[C@@H](CCC(=O)NCCOCCOCC(=O)NCCOCCOCC(=O)N[C@@H](CCCC)C(=O)N[C@H](CCCNC(=N)N)C(=O)N[C@@H](CCC(N)=O)C(=O)N[C@@H](CCCCNC(=N)N)C(=O)N1CCC[C@H]1C(=O)N[C@H](CCCNC(=N)N)C(=O)N(C)[C@@H](CC(C)C)C(=O)N[C@@H](C)C(=O)N[C@@H](C)C(=O)N[C@@H](CCCCN)C(=O)NCC(=O)N1[C@H](C(=O)N[C@@H](Cc2ccc(I)cc2)C(=O)N2CCC[C@H]2C(=O)N[C@H](Cc2ccc(-c3ccccc3)cc2)C(=O)O)C[C@@H]2CCCC[C@@H]21)C(=O)O) [Apelin polypeptide SEQ ID NO: 332]
0.803	0.684	Tridecanoyl-[γGlu][AEEA][AEEA][Nle]QRP[hArg][Cha]SAKG[Oic][Nle]P[Phe(4-Cl)]-OH (SMILES CCCCCCCCCCCCC(=O)N[C@@H](CCC(=O)NCCOCCOCC(=O)NCCOCCOCC(=O)N[C@@H](CCCC)C(=O)N[C@@H](CCC(N)=O)C(=O)N[C@@H](CCCNC(=N)N)C(=O)N1CCC[C@H]1C(=O)N[C@@H](CCCCNC(=N)N)C(=O)N[C@@H](CC1CCCCC1)C(=O)N[C@@H](CO)C(=O)N[C@@H](C)C(=O)N[C@@H](CCCCN)C(=O)NCC(=O)N1[C@H](C(=O)N[C@@H](CCCC)C(=O)N2CCC[C@H]2C(=O)N[C@@H](Cc2ccc(Cl)cc2)C(=O)O)C[C@@H]2CCCC[C@@H]21)C(=O)O) [Apelin polypeptide SEQ ID NO: 342]
6	9.29	Tridecanoyl-[γGlu][AEEA][AEEA][hArg][dR]Q[Nle]P[dR][NMeL]SHKG[Oic][Phe(4-I)]P[dBip]-OH (SMILES CCCCCCCCCCCCC(=O)N[C@@H](CCC(=O)NCCOCCOCC(=O)NCCOCCOCC(=O)N[C@@H](CCCCNC(=N)N)C(=O)N[C@H](CCCNC(=N)N)C(=O)N[C@@H](CCC(N)=O)C(=O)N[C@@H](CCCC)C(=O)N1CCC[C@H]1C(=O)N[C@H](CCCNC(=N)N)C(=O)N(C)[C@@H](CC(C)C)C(=O)N[C@@H](CO)C(=O)N[C@@H](Cc1c[nH]cn1)C(=O)N[C@@H](CCCCN)C(=O)NCC(=O)N1[C@H](C(=O)N[C@@H](Cc2ccc(I)cc2)C(=O)N2CCC[C@H]2C(=O)N[C@H](Cc2ccc(-c3ccccc3)cc2)C(=O)O)C[C@@H]2CCCC[C@@H]21)C(=O)O) [Apelin polypeptide SEQ ID NO: 316]
